Key:
[1] = molecular target: CT-MRAP2, C-terminal domain of MRAP2 fused to a poly-his tag (human) (UniProt Q96G30); test: SDS-PAGE; purified His-tagged CT-MRAP2 resolved by SDS-PAGE under denaturing conditions, anti-His blot
[2] = molecular target: CT-MRAP2, C-terminal domain of MRAP2 fused to a poly-his tag (human) (UniProt Q96G30); test: native gel or EMSA; blue native PAGE of 20 μg purified C-terminal MRAP2 domain, 3% to 16% Bis-Tris gel, 0 °C, anti-His blot; molecular weights only approximate

## CT-MRAP2, C-terminal domain of MRAP2 fused to a poly-his tag (from UniProt Q96G30 76-205) (domain or fragment)
[1]
  stoichiometry N: 2
[2]
  stoichiometry N: 2
